Measurements taken from article PMC5101189, “Structure of the MIS12 Complex and Molecular Basis of Its Interaction with CENP-C at Human Kinetochores” (Cell, 2016).

Molecular target: T1, NSL1, full length (subunit of the full-length MIS12C in the KMN assembly) (human, UniProt Q96IY1 1-281)
T1 sequence (looked up): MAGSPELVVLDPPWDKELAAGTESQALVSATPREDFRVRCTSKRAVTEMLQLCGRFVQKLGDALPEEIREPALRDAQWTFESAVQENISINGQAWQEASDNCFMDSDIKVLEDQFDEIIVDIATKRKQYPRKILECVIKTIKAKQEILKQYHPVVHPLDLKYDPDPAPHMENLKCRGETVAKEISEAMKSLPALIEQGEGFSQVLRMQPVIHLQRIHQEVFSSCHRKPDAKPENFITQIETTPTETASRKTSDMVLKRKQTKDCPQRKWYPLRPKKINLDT
Assay: cross-linking; 10-subunit KMN assembly with a CENP-C fragment, 45 μg at 1 mg/ml, 650 μM BS3 (d0/d12), 30 min at 37°C; trypsin or AspN digest, tandem mass spectrometry (xQuest)
Conditions: both partners purified

binding result: binds
B1: ZWINT (natural protein, human, UniProt O95229 1-277, looked up)
chain: MEAAETEAEAAALEVLAEVAGILEPVGLQEEAELPAKILVEFVVDSQKKDKLLCSQLQVADFLQNILAQEDTAKGLDPLASEDTSRQKAIAAKEQWKELKATYREHVEAIKIGLTKALTQMEEAQRKRTQLREAFEQLQAKKQMAMEKRRAVQNQWQLQQEKHLQHLAEVSAEVRERKTGTQQELDRVFQKLGNLKQQAEQERDKLQRYQTFLQLLYTLQGKLLFPEAEAEAENLPDDKPQQPTRPQEQSTGDTMGRDPGVSFKAVGLQPAGDVNLP
notes: ZWINT, human, subunit of KNL1C in the cross-linked 10-subunit KMN assembly; also called Zwint1
